Measurements reported in patent US20260144882A1 (BIO THERA SOLUTIONS, published 2026).
Residue numbers refer to the chain shown, from its start.

T1: human Nectin-4 extracellular antigen hNectin-4-His (human, UniProt Q96NY8 32-349)
T1 construct: C-terminal 8xHis tag included
T1 sequence: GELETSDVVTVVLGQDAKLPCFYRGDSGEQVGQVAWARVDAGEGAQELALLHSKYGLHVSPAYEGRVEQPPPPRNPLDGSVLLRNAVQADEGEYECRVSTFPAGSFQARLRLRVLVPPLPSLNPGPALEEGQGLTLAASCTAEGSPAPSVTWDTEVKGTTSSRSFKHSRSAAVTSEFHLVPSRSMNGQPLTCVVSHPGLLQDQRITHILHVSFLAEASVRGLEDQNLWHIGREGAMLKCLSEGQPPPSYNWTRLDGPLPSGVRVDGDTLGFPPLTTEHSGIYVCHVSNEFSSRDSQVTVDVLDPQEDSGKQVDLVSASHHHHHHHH

B1: antibody 1G8-1E10 (antibody, human IgG1, kappa, V domains shown)
VH: EVQLVESGGGLVQPGGSLRLSCAASGDSFSTYAMSWVRQAPGKGLEWVSRISGSGDGKDYADSVKGRFTISRDNSKNTLYLQMNSLRAEDTAVYYCARQTEDRSYGYDLDYWGQGTLVTVSS
VL: DIQMTQSPSSLSASVGDRVTITCRASQGISSYLAWYQQKPGKAPKLLIYAASSLQSGVPSRFSGSGSGTDFTLTISSLQPEDFATYYCQQHYTTPPTFGQGTKVEIKR
B2: antibody 1G8-2B3 (antibody, human IgG1, kappa, V domains shown)
VH: EVQLVESGGGLVQPGGSLRLSCAASGYNFTTSAMSWVRQAPGKGLEWVSRIYQDSSTTDYADSVKGRFTISRDNSKNTLYLQMNSLRAEDTAVYYCARQTEDRSYGYDLDYWGQGTLVTVSS
VL: B1 VL
B3: antibody 1F3-1H3 (antibody, human IgG1, kappa, V domains shown)
VH: EVQLVESGGGLVQPGGSLRLSCAASGFNFYNYGMSWVRQAPGKGLEWVSGIKPHSDVAHYADSVKGRFTISRDNSKNTLYLQMNSLRAEDTAVYYCARAELLAFDVYTASDYWGQGTLVTVSS
VL: B1 VL
B4: antibody 1G8-2G8 (antibody, human IgG1, kappa, V domains shown)
VH: B1 VH with D27F, S28N, S30T, T31N, G53T, S54Y, G57T, K58T, D59H
VL: B1 VL
B5: antibody 1G8-2C6 (antibody, human IgG1, kappa, V domains shown)
VH: B1 VH with S28N, T31S, S52Y, G55D, D56S, G57T, K58P
VL: B1 VL
B6: antibody 1F3-1A9 (antibody, human IgG1, kappa, V domains shown)
VH: EVQLVESGGGLVQPGGSLRLSCAASGYSFDNYAMSWVRQAPGKGLEWVSRISPTGGYASYADSVKGRFTISRDNSKNTLYLQMNSLRAEDTAVYYCARAELLAFDVYTASDYWGQGTLVTVSS
VL: B1 VL
B7: antibody 1F3-2B9 (antibody, human IgG1, kappa, V domains shown)
VH: B3 VH with Y30D, N31S, G33A, S55T, V57D, A58I, H59Y
VL: B1 VL
B8: antibody 1F3-1G7 (antibody, human IgG1, kappa, V domains shown)
VH: B3 VH with F27D, N28I, Y30S, G33S, K52Y, H54S, S55G, V57S, A58R, H59R
VL: B1 VL
B9: antibody 1G8-1G3 (antibody, human IgG1, kappa, V domains shown)
VH: B1 VH with D27F, S28N, S30G, S54I, G55S, D56A, K58T, D59N
VL: B1 VL
B10: antibody 1G8-2F2 (antibody, human IgG1, kappa, V domains shown)
VH: B1 VH with S28I, S30G, T31S, G53S, S54H, D56A, G57S, K58R
VL: B1 VL
B11: antibody 1F3-1F8 (antibody, human IgG1, kappa, V domains shown)
VH: B3 VH with Y30G, G50R, K52S, P53G, H54D, S55G, D56S, V57N, A58I, H59N
VL: B1 VL
B12: antibody 10F4-1A1 (antibody, human IgG1, kappa, V domains shown)
VH: EVQLVESGGGLVQPGGSLRLSCAASGFSFDNYDMSWVRQAPGKGLEWVSSIKPGSAYKFYADSVKGRFTISRDNSKNTLYLQMNSLRAEDTAVYYCAREYSDVVDYVSVRTPLDYWGQGTLVTVSS
VL: B1 VL
B13: antibody 10F4-2C12 (antibody, human IgG1, kappa, V domains shown)
VH: EVQLVESGGGLVQPGGSLRLSCAASGYNFGDYSMSWVRQAPGKGLEWVSVIDTTSAYTRYADSVKGRFTISRDNSKNTLYLQMNSLRAEDTAVYYCAREYSDVVDYVSVRTPLDYWGQGTLVTVSS
VL: B1 VL
B14: antibody 10F4-1E1 (antibody, human IgG1, kappa, V domains shown)
VH: B12 VH with F27D, S28I, D30G, D33W, K52D, P53A, G54S, A56G, Y57N, K58R
VL: B1 VL
B15: antibody 10F4-1C10 (antibody, human IgG1, kappa, V domains shown)
VH: B13 VH with D31S, S33D, V50G, D52K, T54Y, S55G, A56G, Y57N, R59H
VL: B1 VL
B16: antibody 10F4-1F1 (antibody, human IgG1, kappa, V domains shown)
VH: B12 VH with D30S, D33W, S50A, K52S, S55D, A56G, Y57T, K58I
VL: B1 VL
B17: antibody 10F4-2F11 (antibody, human IgG1, kappa, V domains shown)
VH: B13 VH with G30T, D31S, S33D, V50G, D52K, T54G, S55G, A56G, Y57S, T58A
VL: B1 VL
B18: antibody 10F4-1H6 (antibody, human IgG1, kappa, V domains shown)
VH: B12 VH with S28N, D30Y, N31D, S50G, P53T, G54H, A56G, Y57G, K58N, F59G
VL: B1 VL
B19: antibody 10F4-1F8 (antibody, human IgG1, kappa, V domains shown)
VH: EVQLVESGGGLVQPGGSLRLSCAASGYTFTDYDMSWVRQAPGKGLEWVSSIITDGGGAFYADSVKGRFTISRDNSKNTLYLQMNSLRAEDTAVYYCAREYSDVVDYVSVRTPLDYWGQGTLVTVSS
VL: B1 VL
B20: antibody 10F4-2C6 (antibody, human IgG1, kappa, V domains shown)
VH: EVQLVESGGGLVQPGGSLRLSCAASGFNFGGFDMSWVRQAPGKGLEWVSGIKQYKGYTSYADSVKGRFTISRDNSKNTLYLQMNSLRAEDTAVYYCAREYSDVVDYVSVRTPLDYWGQGTLVTVSS
VL: B1 VL
B21: antibody 10F4-1C3 (antibody, human IgG1, kappa, V domains shown)
VH: B19 VH with T28S, T30S, D33W, I52K, T53Q, D54T, G57V, A58K, F59H
VL: B1 VL
B22: antibody 10F4-1H11 (antibody, human IgG1, kappa, V domains shown)
VH: B19 VH with D31G, Y32F, D33W, I52S, T53P, G55S, G57T, A58K, F59H
VL: B1 VL
B23: antibody 10F4-1G7 (antibody, human IgG1, kappa, V domains shown)
VH: B19 VH with T28N, T30G, T53G, D54H, G56D, G57T, A58K
VL: B1 VL

Target: T1, human Nectin-4 extracellular antigen …
Test: ELISA, coated hNectin-4-His
Source text: (§1) The binding activity of the antibodies was detected by ELISA.

EC50 | Binder
0.006 µg/mL | B1
0.005 µg/mL | B2
0.008 µg/mL | B3
0.006 µg/mL | B4
0.005 µg/mL | B5
0.007 µg/mL | B6
0.009 µg/mL | B7
0.008 µg/mL | B8
0.004 µg/mL | B9
0.012 µg/mL | B10
0.008 µg/mL | B11

Target: T1, human Nectin-4 extracellular antigen …
Test: ELISA, coated hNectin-4-His
Remark: another data set of the same source
Source text: as §1

EC50 | Binder
0.051 µg/mL | B12
0.06 µg/mL | B13
0.067 µg/mL | B14
0.058 µg/mL | B15
0.057 µg/mL | B16
0.078 µg/mL | B17
0.063 µg/mL | B18
0.054 µg/mL | B19
0.09 µg/mL | B20
0.053 µg/mL | B21
0.059 µg/mL | B22
0.068 µg/mL | B23

Target: T1, human Nectin-4 extracellular antigen …
Test: SPR, antibody on Protein A chip, 1:1 fit
Source text: In this study, the affinity of the antibodies for the human Nectin-4 extracellular antigen was detected by surface plasmon resonance (SPR) technique (BIAcore: GE Healthcare, T200).

Kd | koff | kon | Binder
1.31 nM | 0.00087 s⁻¹ | 665000 M⁻¹ s⁻¹ | B1
1.98 nM | 0.00147 s⁻¹ | 742000 M⁻¹ s⁻¹ | B2
0.432 nM | 0.000186 s⁻¹ | 430000 M⁻¹ s⁻¹ | B12
0.62 nM | 0.00105 s⁻¹ | 1.69e+06 M⁻¹ s⁻¹ | B3
0.533 nM | 0.000304 s⁻¹ | 570000 M⁻¹ s⁻¹ | B13
1.87 nM | 0.00142 s⁻¹ | 758000 M⁻¹ s⁻¹ | B4
0.435 nM | 0.000116 s⁻¹ | 265000 M⁻¹ s⁻¹ | B15
1.87 nM | 0.00137 s⁻¹ | 734000 M⁻¹ s⁻¹ | B5
0.396 nM | 0.000161 s⁻¹ | 406000 M⁻¹ s⁻¹ | B17
0.505 nM | 0.000151 s⁻¹ | 299000 M⁻¹ s⁻¹ | B18
0.641 nM | 0.000994 s⁻¹ | 1.55e+06 M⁻¹ s⁻¹ | B6
0.552 nM | 0.00101 s⁻¹ | 1.82e+06 M⁻¹ s⁻¹ | B7
0.558 nM | 0.000237 s⁻¹ | 424000 M⁻¹ s⁻¹ | B19
0.743 nM | 0.000596 s⁻¹ | 802000 M⁻¹ s⁻¹ | B8
0.285 nM | 8.36e-05 s⁻¹ | 294000 M⁻¹ s⁻¹ | B20
0.589 nM | 0.000218 s⁻¹ | 370000 M⁻¹ s⁻¹ | B21
3 nM | 0.00141 s⁻¹ | 471000 M⁻¹ s⁻¹ | B9
2.12 nM | 0.00166 s⁻¹ | 784000 M⁻¹ s⁻¹ | B10
0.564 nM | 0.000966 s⁻¹ | 1.71e+06 M⁻¹ s⁻¹ | B11
0.605 nM | 0.000212 s⁻¹ | 350000 M⁻¹ s⁻¹ | B22
0.374 nM | 0.000145 s⁻¹ | 389000 M⁻¹ s⁻¹ | B23
